Results: PMC9976904, “eIF4A1-dependent mRNAs employ purine-rich 5’UTR sequences to activate localised eIF4A1-unwinding through eIF4A1-multimerisation to facilitate translation”

Target: eIF4A1 DQAD (human, UniProt P60842 1-406, E183Q)
Experiment: EMSA; silvestrol; affinity similar to wt; 20 mM HEPES/KOH pH 7.5, 100 mM KCl, 1 mM TCEP, 1% DMSO, 2 mM AMPPNP/MgCl2, 25 C, 60 min; EMSA gels 6-7% acrylamide-TB, 0.5x TB
Conditions: protein: recombinant; tags: N-terminal 6xHis-SUMO, cleaved; label: FAM or 5' Dy780

eIF4A1 DQAD, sequence (P60842 whole entry E183Q): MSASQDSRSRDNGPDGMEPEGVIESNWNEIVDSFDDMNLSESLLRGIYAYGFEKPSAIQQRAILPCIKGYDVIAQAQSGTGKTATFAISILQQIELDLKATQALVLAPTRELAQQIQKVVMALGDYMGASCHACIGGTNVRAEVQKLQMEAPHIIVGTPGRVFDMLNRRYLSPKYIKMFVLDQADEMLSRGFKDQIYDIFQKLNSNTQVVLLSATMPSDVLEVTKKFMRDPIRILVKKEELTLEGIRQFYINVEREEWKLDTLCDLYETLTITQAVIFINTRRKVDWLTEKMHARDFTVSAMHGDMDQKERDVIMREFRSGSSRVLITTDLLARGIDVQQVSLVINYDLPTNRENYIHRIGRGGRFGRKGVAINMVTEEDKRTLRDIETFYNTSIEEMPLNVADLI

AGAGAGAGAGAGAGAGAGAG (ssRNA) [AG-RNA (20 nt)]: binds.
